The target of one assay is human PD-1-His (human, UniProt Q15116 25-167). Briefly: Octet. Background: Biolayer interferometry detects binding as a change in optical thickness at a sensor tip.
In the next assay the target is T1, Cyno PD-1.
T1 chain: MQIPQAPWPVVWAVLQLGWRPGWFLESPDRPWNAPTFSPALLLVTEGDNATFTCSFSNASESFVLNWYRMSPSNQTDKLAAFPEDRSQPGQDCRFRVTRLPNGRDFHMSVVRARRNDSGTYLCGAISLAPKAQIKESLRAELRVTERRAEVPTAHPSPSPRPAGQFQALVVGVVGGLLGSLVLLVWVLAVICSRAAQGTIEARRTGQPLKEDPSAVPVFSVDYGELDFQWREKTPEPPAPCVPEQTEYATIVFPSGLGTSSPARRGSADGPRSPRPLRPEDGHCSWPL
Kind of assay: Octet.

Chain of human PD-1-His (Q15116 25-167): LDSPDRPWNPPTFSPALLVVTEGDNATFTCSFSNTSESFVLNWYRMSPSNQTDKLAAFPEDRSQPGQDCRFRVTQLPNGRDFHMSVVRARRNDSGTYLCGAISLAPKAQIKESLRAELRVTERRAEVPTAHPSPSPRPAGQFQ

B1: XENP28519 (bivalent mAb based on humanized mAb A) (antibody, V domains shown)
VH: QVQLQESGPGLVKPSQTLSLTCTVSGHSITSDYAWNWIRQPPGKKLEWIGYISYSGYTTYNPSLKSRVTISRDTSKNQFSLKLSSVTAADTAVYFCARDLDYGPWFAYWGQGTLVTVSS
VL: DIQMTQSPSSLSASVGDRVTITCRASENIHNYLAWYQQKPGKSPKLLVYNVKTLADGVPSRFSGSGSGTDYTLTISSLQPEDFATYYCQHFWSSPWTFGGGTKVEIKR
Usually Kd stands for the concentration at which binding is half-saturated. Read a high Kd as weaker binding. For the molecule B1, the Kd with human PD-1-His stood at 11.9 nM.

B2: XENP28536 (bivalent mAb based on humanized mAb C, mAb C[PD-1]_H1L1) (antibody, V domains shown)
VH: EVQLVESGGGLVQPGGSLRLSCAASGFTFSSFGMHWVRQAPGKGLEWVSYISSGSSIIYYADSVKGRFTISRDNAKNSLYLQMNSLRAEDTAVYYCARGGRLVWSPDYWGQGTLVTVSS
VL: DIVMTQSPDSLAVSLGERATINCKSSQSLLNSGNQKNYLTWYQQKPGQPPKLLIYWASTRESGVPDRFTGSGSGTDFTLTISSLQAEDVAVYYCQNDYSYPFTFGSGTKLEIK
In the case of B2, the results for the Kd in the assay with human PD-1-His and with Cyno PD-1 were 24 nM and 35.8 nM, respectively.

B3: XENP28537 (humanized variant of anti-PD-1 mAb C, bivalent human IgG1) (antibody, V domains shown)
VH: B2 VH
VL: DIVMTQSPLSLPVTPGEPASISCRSSQSLLNSGNQKNYLTWYLQKPGQPPQLLIYWASTRESGVPDRFTGSGSGTDFTLKISRVEAEDVGVYYCQNDYSYPFTFGSGTKLEIKR
B3 yielded a Kd with Cyno PD-1 of 42 nM.
